According to patent US20240076315A1, “KHL POLYPEPTIDE, AND USE THEREOF IN PREPARATION OF TABP-EIC CELL” (priority 2021, published 2024):
No end group written: not given here.

Tests used:
[1] = target: PSMA (Homo sapiens, UniProt Q04609); assay: Phage display peptide library (Ph.D.-12) screening for peptide binding to PSMA; conditions: three rounds of panning, Ph.D.-12 phage display library
Experimental: The present disclosure uses the Ph.D.-12 phage display peptide library kit to screen peptide KHL that specifically binds to PSMA.
Random twelve peptide phage display library: 100 μL. 1.5×10^13 pfu/mL, stored in TBS solution containing 50% glycerol, complexity-2.7×10^9 transformants-28gIII sequencing primers: 5′-HOGATTGGGATTTGCTAACAAC-3′, 100 pmol, 1 pmol/μL-96 g III sequencing primer: 5′-HOCCTCATATAGTTAGCGTAGCGTAACG-3′, 100 pmol/1 pmol/μL; E. Coli ER2738 Host bacterium F′laclq Δ(lacZ) M15 proA+B+zzf:: Tn10 (TetR)/fhuA2 supE thi Δ(lac proAB) Δ(hsdMS mcrB) 5 (rk mk McrBC−): This strain is provided in the form of a bacterial culture containing 50% glycerol, non receptive cells, and stored at −70° C.; Streptavidin, freeze-dried powder 1.5 mg; Biotin: 10 mM 100 μL.
Depending on the number and types of target molecules that need to be simultaneously selected for library selection, the selection experiment is conducted on a single sterilized polystyrene culture dish, 12 or 24 well plates, and 96 well microplates. Each target molecule is coated with at least one plate (or well), and the amount given in the following method is the amount of the 60×15 mm culture dish, the content in parentheses is the amount of the plate, and the dosage of microplate is adjusted accordingly for other medium-sized wells. However, in each case, the number of added bacteriophages is the same: 1.5×10^11 virion. […]

[2] = system: PC3 cell lines with low PSMA expression; assay: Immunofluorescence detection of KHL peptide (FITC marker) on PC3 cell line; format: binding; conditions: FIG. 2
Experimental: (§1) Immunofluorescence detection was performed on KHL peptides in Lncap cell lines with high PSMA expression and PC3 cell lines with low PSMA expression, using FITC as the fluorescent marker. The fluorescence detection of KHL peptide and Lncap cell line is shown in FIG. 1, and the fluorescence detection of KHL peptide and PC3 cell line is shown in FIG. 2.

[3] = target: T1, cell surface antigen PSMA (Homo sapiens, UniProt Q04609); assay: Immunofluorescence detection of KHL peptide (FITC marker) on Lncap cell line; format: binding
T1 construct: endogenous in cells; host or cells: Lncap cells (PC3 cells as low-PSMA control)
Experimental: as §1

T1 sequence (Q04609 whole entry): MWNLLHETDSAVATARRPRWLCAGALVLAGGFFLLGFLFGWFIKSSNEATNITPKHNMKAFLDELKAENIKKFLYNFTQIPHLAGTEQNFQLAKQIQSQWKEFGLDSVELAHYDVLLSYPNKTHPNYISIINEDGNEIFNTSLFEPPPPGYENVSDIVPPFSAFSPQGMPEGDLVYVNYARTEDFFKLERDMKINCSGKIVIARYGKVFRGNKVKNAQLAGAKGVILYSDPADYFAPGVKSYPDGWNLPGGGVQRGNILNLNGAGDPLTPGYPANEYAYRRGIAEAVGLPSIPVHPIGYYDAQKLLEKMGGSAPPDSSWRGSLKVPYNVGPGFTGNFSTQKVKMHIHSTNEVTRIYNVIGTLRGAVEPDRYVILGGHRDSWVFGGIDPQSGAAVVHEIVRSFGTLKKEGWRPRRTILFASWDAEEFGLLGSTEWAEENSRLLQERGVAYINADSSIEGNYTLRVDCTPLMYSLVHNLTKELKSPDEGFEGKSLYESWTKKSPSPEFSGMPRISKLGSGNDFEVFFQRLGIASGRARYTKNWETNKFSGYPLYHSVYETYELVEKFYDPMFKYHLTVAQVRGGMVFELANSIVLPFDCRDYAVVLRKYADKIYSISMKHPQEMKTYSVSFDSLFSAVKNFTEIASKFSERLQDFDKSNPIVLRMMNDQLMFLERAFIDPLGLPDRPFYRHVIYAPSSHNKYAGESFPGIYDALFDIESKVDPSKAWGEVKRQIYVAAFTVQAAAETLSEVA
Chain of PSMA (Q04609 whole entry, species assumed): as the sequence (Q04609 whole entry) above

For “KHLHYHSSVRYG (also: FITC label, attachment site not given here) [FITC used as the fluorescent marker in immunofluorescence]”, the “binding to PSMA found by peptide library screening” value [1] was “specifically binding to PSMA”, the “cell surface fluorescence labeled by KHL” value [2] was “only staining of the nucleus” and the “specificity of binding of KHL to the cell surface antigen PSMA” value ([3]; Lncap (high PSMA) versus PC3 (low PSMA)) was “high specificity”. The “cell surface fluorescence labeled by KHL” value ([3]; Lncap cell lines with high PSMA expression, FITC, FIG. 1) was “fluorescence displayed by KHL binding to the cell surface antigen PSMA”.
